US7338938B2, “Methods for treating a patient undergoing chemotherapy” (University of Southern California, priority 1999, dated 2008)
“Also recorded” adds a separate entry of the source. Non-standard residues stand in square brackets, D forms with d. No end group written: not given here. Phe(4-NH2) = Nc1ccc(C[C@H](N)C(=O)O)cc1

Key:
[1] = system: female C57B1/6 mice treated with 200 mg/kg cytoxan; conditions: 200 mg/kg cyclophosphamide i.v.
[2] = system: mice injected with 150 mg/kg 5FU intravenously (WBC, platelets, hemoglobin); assay: Effect of angiotensin fragments and ACE inhibitor on recovery after chemotherapy (Example 4); format: in vivo; conditions: for relative effect on increase in WBC (ranking of active agents): throughout the experimental period
Description: The next study was designed to test the effect of angiotensin peptides and the angiotensin converting enzyme inhibitor, enalapril, on recovery of white blood cells, platelets and hemoglobin after chemotherapy, as well as on granulocyte-macrophage colony forming units (GM-CFU) in the blood and bone marrow.
Female […] mice (4 per group), 6-8 weeks old, were injected with 150 mg/kg 5FU intravenously. Administration of the peptides (AII (100 μg/kg/day), AII(1-7) (10 or 100 μg/kg/day), AII(1-5) (10 or 100 μg/kg/day), and AII(1-6) (100 μg/kg/day)), by subcutaneous injection, or enalapril (30 mg/kg/day) by oral gavage, was begun 2 days after administration of the antineoplastic and continued daily until 28 days after 5FU administration, at which time the mice were euthanized for evaluation of white blood cell numbers, platelets, hemoglobin levels and the number of GM-CFU in the bone marrow and peripheral blood. On days 7, 10, 14 and 21 after 5FU administration, blood was taken under anesthesia from the retro-orbital sinus to assess white blood cell number, platelet number, and hemoglobin levels.
The mice were bled from the retro-orbital sinus at days 7, 10, 14 and 21. The mice were anesthetized with Metofane (an inhaled anesthesia). Approximately 150-200 μl of blood were obtained from the retro-orbital sinus with a heparinzed capillary tube. The blood was then placed in a 1.7 ml microfuge tube containing 10 mM EDTA and held on ice until further processing.
One hundred μl of blood was pipetted into a centrifuge tube, to which 900 μl of distilled water was added. The blood and water were mixed by inversion and allowed incubate at 4° C. for 20 minutes. The tube was then centrifuged at 12000 rpm to precipitate the cellular debri for 20 to 30 minutes at room temperature. Twenty μl of the supernatant from this centrifugation was then added into triplicate wells of a 96 well plate containing 180 μl of distilled water. The optical density, was then read using a microplate reader at […].
Twenty μl of blood was mixed with 200 μl of red blood cell (RBC) lysing solution (0.83% NH4Cl, 10 mM EDTA, 0.5% NaHCO3). The mixture was then incubated for 10 minutes at 4° C. After this incubation, the supernatant was removed and the pellet was resuspended in 100 μl of PBS. To this, 100 μl of 0.04% trypan blue was added. This mixture was vortexed and the number of WBC (baseline was approximately 10^7 cells/ml) was evaluated by hematocytometer under light microscopy and the number: of platelets (baseline was approximately 2.5×10^8 platelets/ml) was evaluated by hematocytometer under phase contrast microscopy.
The blood was harvested by cardiac puncture on day 10 to assess mobilization of myeloid progenitors into the peripheral blood. The femurs and tibia were also collected and the bone marrow was harvested by flushing with PBS containing 2% fetal calf serum. After collection of the blood and bone marrow, the red blood cells were lysed with a hypotonic solution (described above), mixed with 0.04% trypan blue, and the number of nucleated cells assessed by hematocytometer under light microscopy. Aliquots of cells were then resuspended at 1×10^5 cells/ml (bone marrow) or 1×10^6 cells/ml Flood). […]

[3] = system: animals given intravenous 5FU (white blood cells, CFU-GM); assay: Effect of AII on white blood cell mobilization and recovery after 5-fluorouracil (Example 1); format: in vivo, mice; conditions: AII 10 or 100 μg/kg/day s.c., started day -2, 0 or 2 relative to i.v. 5FU; day 7 or 14; all tissues tested (blood, spleen, thymus, bone marrow)
Description: This study was designed to test the effect of AII on the recovery of white blood cells in lymphoid organs and on the level of granulocyte macrophage precursors (CFU-GM) in the blood (ie: mobilization), spleen (mobilization), and bone marrow (recovery) after intravenous administration of 5-fluorouracil (5FU). […] The number of white blood cells in each of the lymphoid organs, or the number of CFU-GM present in all the organs except the thymus were then assessed.

AT2 receptor = conditions: cited from earlier work
[4] = Tests of AII fragments for effectiveness (method not described); conditions: test not specified
[5] = system: patients with newly diagnosed breast cancer receiving doxorubicin and cyclophosphamide
[6] = filgrastim 5.0 μg/kg/day comparator arm

O=P1(N(CCCl)CCCl)NCCCO1 (stereo not shown) [cyclophosphamide, reference compound]
number of myeloid progenitors (GM-CFU) in the bone marrow after cyclophosphamide [1]: significantly reduced

CCOC(=O)[C@H](CCc1ccccc1)N[C@@H](C)C(=O)N1CCC[C@H]1C(=O)O [enalapril, reference compound]
relative effect on increase in WBC (ranking of active agents) [2]: least effective

Asp-Arg-Val-Tyr-Ile (DRVYI) [AII(1-5)]
platelets after administration ([2]; after i.v. 5FU): increase in platelets

Asp-Arg-Val-Tyr-Ile-His-Pro-Phe (DRVYIHPF) [AII]
white blood cell mobilization and/or recovery [3]: significantly enhanced
relative effect on increase in WBC (ranking of active agents) [2]: most profound effect

Asp-Arg-Val-Tyr-Ile-Xaa-Pro-Phe (DRVYI[Phe(4-NH2)]PF) [(p-NH2-Phe)6-AII]
affinity for AT2 relative to other receptor subtype (AT2 receptor): 100 times
binding characteristics in the experimental models tested (AT2 receptor): comparable’ to AT2 antagonists

DRVYIH [AII(1-6)]
relative effect on increase in WBC (ranking of active agents) [2]: least effective

His-Pro-Phe (HPF) [AII(6-8)]
effectiveness in tests [4]: not to be effective

Tyr-Ile-His-Pro-Phe (YIHPF) [AII(4-8)]
effectiveness in tests [4]: not to be effective; also recorded: ineffective

B1: Filgrastim: recombinant G-CSF (NEUPOGEN, Amgen, Inc.), comparator arm (protein, UniProt P09919 31-207, looked up)
Granulocyte …: TPLGPASSLPQSFLLKCLEQVRKIQGDGAALQEKLVSECATYKLCHPEELVLLGHSLGIPWAPLSSCPSQALQLAGCLSQLHSGLFLYQGLLQALEGISPELGPTLDTLQLDVADFATTIWQQMEELGMAPALQPTQGAMPAFASAFQRRAGGVLVASHLQSFLEVSYRVLRHLAQP
modifications: filgrastim, N-terminal methionine
Alopecia (frequency by treatment group) ([5]; chemotherapy patients): 40%
Anemia (frequency by treatment group) ([5]; chemotherapy patients): 60%
Fatigue (frequency by treatment group) ([5]; chemotherapy patients): 80%
Headache (frequency by treatment group) ([5]; chemotherapy patients): 60%
Myalgia/Muscle-skeletal pain (frequency by treatment group) ([5]; chemotherapy patients): 60%
Nausea (frequency by treatment group) ([5]; chemotherapy patients): 100%
Stomatitis (frequency by treatment group) ([5]; chemotherapy patients): 60%
Vomiting (frequency by treatment group) ([5]; chemotherapy patients): 60%
Toxicity: ANC < 1000/μl (frequency) [5, 6]: 40%
Toxicity: Hgb < 10 gm/dl (frequency) [5, 6]: 60%
Toxicity: Lymph < 500/μl (frequency) [5, 6]: 80%
Toxicity: Platelet < 80 K/μl (frequency) [5, 6]: 60%
Toxicity: WBC < 2000/μl (frequency) [5, 6]: 60%
frequency of grade 3-4 neutropenia ([5]; filgrastim compared to AII(1-7)): lower frequency
change in platelet number ([5]; patients that received filgrastim, more pronounced in subsequent cycles): time dependent decrease in platelet number
